Measured values reported in paper PMC6449189.

How the values were obtained:
AcrVA4 = assay: SEC-MALS
[1] = target: Lachnospiraceae bacterium (ND2006) Cas12a (Lachnospiraceae bacterium (ND2006)); assay: SEC-MALS

Substance: AcrVA4 (natural protein)
- stoichiometry N (AcrVA4): 2
- stoichiometry N (AcrVA4 per LbCas12a-crRNA) [1]: 2
